From patent US6689868 (Dana-Farber, dated 2004) come the findings set out here.

The labels stand for the following.
B2: LexA-CD2 tail truncation construct M (other, UniProt P0A7C2 1-202, looked up)
chain: MKALTARQQEVFDLIRDHISQTGMPPTRAEIAQRLGFRSPNAAEEHLKALARKGVIEIVSGASRGIRLLQEEEEGLPLVGRVAAGEPLLAQQHIEGHYQVDPSLFKPNADFLLRVSGMSMKDIGIMDGDLLAVHKTQDVRNGQVVVARIDDEVTVKRLKKQGNKVELLPENSEFKPIVVDLRQQSFTIEGLAVGVIRNGDWLNDEELETRAHRVATEERGRKPHQIPASTPQNPATSQHPPPPPGHRSQAPSHRPPPPGHRVQHQPQKR
B3: LexA-CD2 tail truncation construct N (other, UniProt P0A7C2 1-202, looked up)
chain: MKALTARQQEVFDLIRDHISQTGMPPTRAEIAQRLGFRSPNAAEEHLKALARKGVIEIVSGASRGIRLLQEEEEGLPLVGRVAAGEPLLAQQHIEGHYQVDPSLFKPNADFLLRVSGMSMKDIGIMDGDLLAVHKTQDVRNGQVVVARIDDEVTVKRLKKQGNKVELLPENSEFKPIVVDLRQQSFTIEGLAVGVIRNGDWLNDEELETRAHRVATEERGRKPHQIPASTPQNPATSQHPPPPPGHRSQAPS

For assay [1], the target named is T1, B42-CD2BP1S fusion (CD2BP1S in pJG4-5) (human, UniProt O43586 1-416).
T1 construct: also called clone #48; CD2BP1S/pJG4-5
T1 sequence: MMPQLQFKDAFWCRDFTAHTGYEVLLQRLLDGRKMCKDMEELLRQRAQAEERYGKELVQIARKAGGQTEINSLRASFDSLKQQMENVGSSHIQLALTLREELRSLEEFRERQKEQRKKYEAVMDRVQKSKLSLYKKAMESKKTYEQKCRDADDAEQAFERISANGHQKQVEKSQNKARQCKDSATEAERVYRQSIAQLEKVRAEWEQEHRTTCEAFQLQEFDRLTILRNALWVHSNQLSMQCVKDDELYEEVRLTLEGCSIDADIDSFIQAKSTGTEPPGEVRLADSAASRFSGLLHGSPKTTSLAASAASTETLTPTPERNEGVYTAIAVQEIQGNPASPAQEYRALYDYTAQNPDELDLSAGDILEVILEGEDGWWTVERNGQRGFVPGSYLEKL
In words: yeast two-hybrid (LexA-CD2 tail variant / B42-CD2BP1 construct), lacZ induction. The procedure: (§1) These tail variants were tested in the yeast two-hybrid system for their interaction with CD2BP1L or CD2BP1S as well as CD2BP1 truncations. In FIG. 7, open bars represent the region of CD2BP1 sequence with homology to yeast cdc15 protein aa 116–277; solid bars represent PEST rich regions in the CD2BP1 sequences; and hatched bars represent the SH3 domain in the CD2BP1 sequences. CD2BP1S/ΔSH3 represents CD2BP1 lacking the SH3 domain. $SH334$ includes the entire SH3 domain of CD2BP1 and 34 N-terminal amino acids. $SH366$ includes the SH3 domain of CD2BP1S and 66 N-terminal amino acids. $SH383$ includes the SH3 domain of CD2BP1L and 83 N-terminal amino acids of CD2BP1L. SH^3GGGGS includes the entire SH3 domain of CD2BP1 and an artificial N-terminal linker consisting of the residues shown.
(§2) The strength of the interaction between the CD2 variants and the CD2BP1 constructs was determined by lacZ induction.

Assay [2] has as its target T2, B42-CD2BP1S/ΔSH3 (CD2BP1S truncation construct lacking the terminal SH3 domain) (human, UniProt O43586 1-359).
T2 sequence: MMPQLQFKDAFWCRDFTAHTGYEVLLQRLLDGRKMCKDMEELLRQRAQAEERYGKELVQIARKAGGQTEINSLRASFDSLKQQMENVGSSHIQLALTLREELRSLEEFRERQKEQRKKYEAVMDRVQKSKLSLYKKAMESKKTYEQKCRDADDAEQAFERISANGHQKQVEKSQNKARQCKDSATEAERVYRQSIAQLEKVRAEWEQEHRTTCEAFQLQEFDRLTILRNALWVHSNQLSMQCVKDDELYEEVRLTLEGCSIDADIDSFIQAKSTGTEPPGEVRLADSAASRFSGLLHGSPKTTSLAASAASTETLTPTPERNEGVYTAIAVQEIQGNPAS
Description: yeast two-hybrid, lacZ induction. The procedure:
as §1, §2

Assay [3] deals with T3, B42-CD2BP1L fusion (CD2BP1L in pJG4-5) (human, UniProt O43586 1-416).
T3 sequence: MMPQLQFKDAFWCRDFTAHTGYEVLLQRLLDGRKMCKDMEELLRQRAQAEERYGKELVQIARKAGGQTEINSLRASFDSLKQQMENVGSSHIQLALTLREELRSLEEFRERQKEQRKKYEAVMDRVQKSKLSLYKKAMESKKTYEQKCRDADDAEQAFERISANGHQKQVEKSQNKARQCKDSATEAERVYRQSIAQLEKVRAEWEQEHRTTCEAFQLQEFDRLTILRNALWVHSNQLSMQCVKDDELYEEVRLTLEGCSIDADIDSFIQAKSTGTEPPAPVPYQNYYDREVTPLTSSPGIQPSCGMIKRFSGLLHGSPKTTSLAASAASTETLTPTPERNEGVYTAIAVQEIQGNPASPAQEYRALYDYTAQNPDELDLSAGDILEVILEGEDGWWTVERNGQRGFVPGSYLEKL
In words: yeast two-hybrid, lacZ induction. The procedure: as §1, §2

For assay [4], the target named is T1, B42-CD2BP1S fusion (CD2BP1S in pJG4-5). In words: yeast two-hybrid, lacZ induction. The procedure:
as §1, §2

Assay [5] has as its target B2. In words: yeast two-hybrid, lacZ induction. On the procedure:
as §1, §2

The target of assay [6] is B3. Description: yeast two-hybrid, lacZ induction. On the procedure:
as §1, §2

Assay [7] deals with T4, human CD2 (wild-type, full length) (human, UniProt P06729 25-351).
T4 construct: whole, on cells; In pull-downs and immunoprecipitations it stood in Triton X-100 cell lysates; in staining and rosetting on the cell surface; also called wtCD2; hCD2wt (W33)
T4 sequence (looked up): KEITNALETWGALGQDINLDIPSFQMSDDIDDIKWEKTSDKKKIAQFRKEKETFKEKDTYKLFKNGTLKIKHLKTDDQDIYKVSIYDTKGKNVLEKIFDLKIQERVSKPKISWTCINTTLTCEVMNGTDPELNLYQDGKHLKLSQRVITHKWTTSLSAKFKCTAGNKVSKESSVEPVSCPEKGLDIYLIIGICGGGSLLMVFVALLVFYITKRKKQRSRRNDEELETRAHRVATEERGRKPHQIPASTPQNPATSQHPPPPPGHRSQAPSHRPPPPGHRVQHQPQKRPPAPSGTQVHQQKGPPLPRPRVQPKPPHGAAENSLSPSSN
Description: cell-cell conjugates of activated human T cells with CD58-transfected CHO cells, immunofluorescence. On the procedure:
For image analysis of the CD2BP1 association with CD2, CD2 molecules on the activated T cell surface were induced to cluster by either a pair of anti-CD2 antibodies (anti-T11_2 plus anti-T11_3) or by CD58 ligand directed CD2 relocalization. For antibody crosslinking, activated T cells were incubated with anti-T11_2 mAb (5 μg/ml) and direct Texas red labeled anti-T11_3 mAb (1:50) in FACS buffer at 4° C. for 30 min, followed by two washes with FACS buffer and fixation by incubation in 2% paraformaldehyde/PBS. The cells were then permeabilized and stained with directly FITC-labeled anti-CD2BP1 mAb, followed by fluoroimaging analysis as described above. For ligand induced surface CD2 relocalization, activated T cells were incubated with CD58 transfected CHO cells prebound to coverslips to induce cellular conjugate formation as described previously (Li et al., 1996). After washing off the non-conjugated T cells and fixation in 1% parafornaldehyde, the conjugates were stained with anti-T11_3 antibody (1:50) at 4° C. for 30 min, followed by washing, permeabilization and staining with anti-CD2BP1 antibody as described above. The stained conjugates on the coverslips were then subject to fluoroimaging analysis. […]

B1: LexA-CD2 cytoplasmic tail fusion (CD2 bait, aa 221-327) in pEG202 (other, UniProt P0A7C2 1-202, looked up)
chain: MKALTARQQEVFDLIRDHISQTGMPPTRAEIAQRLGFRSPNAAEEHLKALARKGVIEIVSGASRGIRLLQEEEEGLPLVGRVAAGEPLLAQQHIEGHYQVDPSLFKPNADFLLRVSGMSMKDIGIMDGDLLAVHKTQDVRNGQVVVARIDDEVTVKRLKKQGNKVELLPENSEFKPIVVDLRQQSFTIEGLAVGVIRNGDWLNDEELETRAHRVATEERGRKPHQIPASTPQNPATSQHPPPPPGHRSQAPSHRPPPPGHRVQHQPQKRPPAPSGTQVHQQKGPPLPRPRVQPKPPHGAAENSLSPSSN
notes: The CD2 aa numbers (tail ends at 327) appear to count on mature CD2, not on the precursor; also called CD2 tail; pEG202/CD2
For the molecule B1, the binding result in assay [1] is recorded as “binds”; in assay [2], “no binding”; in assay [3], “binds”.

Regarding B2, the binding result in assay [2], in assay [4] and in assay [3] was “no binding” throughout.

Turning to B3, the binding result in assay [2], in assay [4] and in assay [3] was “no binding” in each case.

B4: B42-SH334 (SH3 domain of CD2BP1 plus 34 N-terminal amino acids) (other, not shown: large carriers)
chain: ASAASTETLTPTPERNEGVYTAIAVQEIQGNPASPAQEYRALYDYTAQNPDELDLSAGDILEVILEGEDGWWTVERNGQRGFVPGSYLEKL
As to B4, the binding result in assay [5] and in assay [6] was “no binding” each time.

B5: human CD58 (on transfected CHO cells) (ligand, UniProt P19256 29-250, looked up)
chain: FSQQIYGVVYGNVTFHVPSNVPLKEVLWKKQKDKVAELENSEFRAFSSFKNRVYLDTVSGSLTIYNLTSSDEDEYEMESPNITDTMKFFLYVLESLPSPTLTCALTNGSIEVQCMIPEHYNSHRGLIMYSWDCPMEQCKRNSTSIYFKMENDLPQKIQCTLSNPLFNTTSSIILTTCIPSSGHSRHRYALIPIPLAVITTCIVLYMNGILKCDRKPDRTNSN
notes: whole, on cells; also called CD58 ligand; human CD58-transfected CHO cells
As for B5, in assay [7], the binding result is listed as “binds”.
